Measured values published in the Human Domainome abundance scans (Beltran et al. 2025).
± gives the uncertainty stated by the source.

B1: Androgen receptor, residues 557 to 632; numbered along this chain, P10275 (parent)
chain: QKTCLICGDEASGCHYGALTCGSCKVFFKRAAEGKQKYLCASRNDCTIDKFRRKNCPSCRLRKCYEAGMTLGARKL

Variants of: B1
Assay: abundance fitness (aPCA) (normalised: wild type 0, dead -1); higher = more abundant; growth selection in yeast, the domain comes from the species named
Conditions: Homo sapiens

Variant | abundance fitness
QKTCLICGDEASGCHYGALTCGSCKVFFKRAAEGKQKYLCASRNDCTIDKFIRKNCPSCRLRKCYEAGMTLGARKL [R52I] | -0.042 ± 0.067
QKTCLICGDEASGPHYGALTCGSCKVFFKRAAEGKQKYLCASRNDCTIDKFRRKNCPSCRLRKCYEAGMTLGARKL [C14P] | -0.057 ± 0.21
QKTCLICGDEASLCHYGALTCGSCKVFFKRAAEGKQKYLCASRNDCTIDKFRRKNCPSCRLRKCYEAGMTLGARKL [G13L] | -0.115 ± 0.064
QKTCLICGDEASGCHYGALTCGSCKEFFKRAAEGKQKYLCASRNDCTIDKFRRKNCPSCRLRKCYEAGMTLGARKL [V26E] | 0.014 ± 0.071
QKTCLICGDEASGCHYGALTCGSCLVFFKRAAEGKQKYLCASRNDCTIDKFRRKNCPSCRLRKCYEAGMTLGARKL [K25L] | -0.099 ± 0.021
QKTCLICGDEASGCHYGALTCGSCKVFFKRAAEGAQKYLCASRNDCTIDKFRRKNCPSCRLRKCYEAGMTLGARKL [K35A] | -0.093 ± 0.052
QKTCLICGDEASGCHYGALTCGSCKVFFKRAAEGKQKYLCASRNDCTIYKFRRKNCPSCRLRKCYEAGMTLGARKL [D49Y] | -0.634 ± 0.21
QKTCLICGDEASGCHYGALTCGSCKVFFKRAAEGKQKYLCASRNDCTITKFRRKNCPSCRLRKCYEAGMTLGARKL [D49T] | -0.165 ± 0.11
QKTCLICGVEASGCHYGALTCGSCKVFFKRAAEGKQKYLCASRNDCTIDKFRRKNCPSCRLRKCYEAGMTLGARKL [D9V] | -0.201 ± 0.062
QKTCLICGDEASGCHYGALTCGSCKVFFKRAAEGKQKYLCASRNDCTCDKFRRKNCPSCRLRKCYEAGMTLGARKL [I48C] | -0.585 ± 0.068
QKTCLICGDEASGCHYGALTCGSCKVFFKRAAEGKQKYLCASRNDCTIDEFRRKNCPSCRLRKCYEAGMTLGARKL [K50E] | -0.124 ± 0.1
QKTCLICGDEASGCHYGALTCGSCKVFFKRAAEGKQKYLCASRNDCTIDKFRRKVCPSCRLRKCYEAGMTLGARKL [N55V] | -0.151 ± 0.086
QKTCLICGDEASGCHYGALTCGSCKVFFKRAAEGKQKYLCASRNDCTILKFRRKNCPSCRLRKCYEAGMTLGARKL [D49L] | -0.502 ± 0.14
QKTCLICGDEASGCHYGALTCGSCKVFFKRAAEGKQKYLCASRNDCTIDKFYRKNCPSCRLRKCYEAGMTLGARKL [R52Y] | -0.09 ± 0.068
QKTCLICGDEAAGCHYGALTCGSCKVFFKRAAEGKQKYLCASRNDCTIDKFRRKNCPSCRLRKCYEAGMTLGARKL [S12A] | -0.046 ± 0.059
QKTCLICGDEASGCHYGALTCGSCKVFFKRAAHGKQKYLCASRNDCTIDKFRRKNCPSCRLRKCYEAGMTLGARKL [E33H] | -0.153 ± 0.086
QKTCLICGDEASGCHYGALTCGSCKVFFKRAAPGKQKYLCASRNDCTIDKFRRKNCPSCRLRKCYEAGMTLGARKL [E33P] | -0.135 ± 0.066
QKTCLICGDEASGCHYGALTCGSCEVFFKRAAEGKQKYLCASRNDCTIDKFRRKNCPSCRLRKCYEAGMTLGARKL [K25E] | 0.044 ± 0.026

Variant | abundance fitness
QKTCLICGDEASGCHYGYLTCGSCKVFFKRAAEGKQKYLCASRNDCTIDKFRRKNCPSCRLRKCYEAGMTLGARKL [A18Y] | -0.776 ± 0.13
QKTCLICGDEASGCHYGALECGSCKVFFKRAAEGKQKYLCASRNDCTIDKFRRKNCPSCRLRKCYEAGMTLGARKL [T20E] | -0.825 ± 0.12
QKTCLICGDEASGCHYGALTCGWCKVFFKRAAEGKQKYLCASRNDCTIDKFRRKNCPSCRLRKCYEAGMTLGARKL [S23W] | -0.137 ± 0.041
QKTCIICGDEASGCHYGALTCGSCKVFFKRAAEGKQKYLCASRNDCTIDKFRRKNCPSCRLRKCYEAGMTLGARKL [L5I] | -0.04 ± 0.052
QKTCLICGDEASGCHYGALTCGSCKVFFKRATEGKQKYLCASRNDCTIDKFRRKNCPSCRLRKCYEAGMTLGARKL [A32T] | 0.114 ± 0.05
QKTCLICGDEASGCHYGALTCGSCKVFFKRAAEGKQKYLCASRNDCTINKFRRKNCPSCRLRKCYEAGMTLGARKL [D49N] | -0.188 ± 0.12
QKTCLICGDEASGCHYGALTCGSCKVFFKRAAEGKIKYLCASRNDCTIDKFRRKNCPSCRLRKCYEAGMTLGARKL [Q36I] | -0.197 ± 0.067
QKTCLICGDEASGCHYGALTVGSCKVFFKRAAEGKQKYLCASRNDCTIDKFRRKNCPSCRLRKCYEAGMTLGARKL [C21V] | -0.754 ± 0.068
QKTCLICGDEAKGCHYGALTCGSCKVFFKRAAEGKQKYLCASRNDCTIDKFRRKNCPSCRLRKCYEAGMTLGARKL [S12K] | -0.054 ± 0.061
QKTCQICGDEASGCHYGALTCGSCKVFFKRAAEGKQKYLCASRNDCTIDKFRRKNCPSCRLRKCYEAGMTLGARKL [L5Q] | -0.113 ± 0.07
QKTCLICGDEASGCHYGALTCGSCKVFFKRAAEGKQKYLCASRNDCTIDKFRRKNCPHCRLRKCYEAGMTLGARKL [S58H] | -0.112 ± 0.061
QKTCLICGDEASGCHYGALTCGCCKVFFKRAAEGKQKYLCASRNDCTIDKFRRKNCPSCRLRKCYEAGMTLGARKL [S23C] | -0.185 ± 0.076
QKTCLICHDEASGCHYGALTCGSCKVFFKRAAEGKQKYLCASRNDCTIDKFRRKNCPSCRLRKCYEAGMTLGARKL [G8H] | -0.06 ± 0.17
QKTCLICGDEASGCHYGALTCGACKVFFKRAAEGKQKYLCASRNDCTIDKFRRKNCPSCRLRKCYEAGMTLGARKL [S23A] | -0.163 ± 0.037
QKTCLTCGDEASGCHYGALTCGSCKVFFKRAAEGKQKYLCASRNDCTIDKFRRKNCPSCRLRKCYEAGMTLGARKL [I6T] | -0.256 ± 0.11
QKTCNICGDEASGCHYGALTCGSCKVFFKRAAEGKQKYLCASRNDCTIDKFRRKNCPSCRLRKCYEAGMTLGARKL [L5N] | -0.058 ± 0.048
QKTCLICGDEASGCHYGALTCGSCKVFFKRAAEGKQKYLCASRNDCTIDKFRRKNCPSCRLRKCYEAGMTPGARKL [L71P] | -0.15 ± 0.075
QKTCLICGDEASGCHYGALTCGSCKVFFKRAAEGKQKYLCASRNDCTIDKFRRKNCPSCRLRKCYEAGMTQGARKL [L71Q] | -0.043 ± 0.1
